{
  "source": "patent US20230074436A1",
  "about": "(DENALI THERAPEUTICS, published 2023)",
  "binders": {"B1": {"name": "20H4 (antibody, rat IgG2b, V domains shown)", "VH": "AVQLVESGGGLVQPKESLKISCAASGFTFSNAAMYWVRQAPGKGLELLARIRTKPNNYATYHADSVKGRFTISRDDSQSMVYLHMGNLKTEDTAMYYCTADMATGDYWGPGVMVTVSS", "VL": "DIQMTQSPPVLSVSVGDRVTLSCKASQNINKNLDWYQQKHGEAPKPLIYSTNNLQTGVPSRFSGSGSGTDYTLTISSLQPEDVATYYCYQYKSAWTFGGGTKLELR", "notes": "also called clone 20H4; rat 20H4"}},
  "key": {"[1]": {"biological_target": "T1, biotinylated human alpha-synuclein (human, UniProt P37840 1-140)", "assay": "Ala-scan peptide ELISA, row D, run 2", "experimental": "(§1) 96-well Nunc plates were coated with 50 μL per well of 1 μg/mL streptavidin (from Jackson Immuno Research Laboratory) in PBS at 4° C. overnight. The plates were washed three times with PBST, and blocked with PBS containing 3% BSA at room temperature for 1 hour. The N-terminal biotinylated peptides were dissolved in Milli Q water to a concentration of 2 mg/mL, then further diluted to a concentration of 2 μg/mL with PBS. 50 μl of the diluted peptide was applied to the streptavidin-coated plates and incubated at 4° C. overnight. 2 μg/mL of biotinylated human alpha-synuclein was used as the positive control. The plates were washed three times with PBST before use. Purified antibody was diluted by serial dilution methods, from 20 μg/mL to 1 ng/mL, and 50 μL of the antibody solution was added to the peptide-coated wells. The plates were incubated for 1 hour at room temperature, then washed three times with PBST. Secondary detection antibody (goat anti-rat HRP (obtained from Southern Biotech)) was added with 1:5,000 dilutions and incubated for 1 hour at room temperature, then washed three times with PBST. Plates were developed with 50 μL/well of TMB substrate (Thermo Fisher) and quenched with 50 μL/well of 1 N sulfuric acid. The signal was quantified on a BioTek® plate reader at A450. A parallel repeat was performed for each peptide in a separate plate."}, "asyn_113-127_119A [2]": {"biological_target": "T2, asyn_113-127_119A (human)", "T2 construct": "substitution is already in the entry; also called pep8", "T2 peptide": "Biotin-LEDMPVAPDNEAYEM", "assay": "Ala-scan peptide ELISA, row D, run 2", "experimental": "as §1"}, "asyn_113-127 [3]": {"biological_target": "T3, asyn_113-127 (human)", "T3 construct": "also called pep1", "T3 peptide": "Biotin-LEDMPVDPDNEAYEM", "assay": "Ala-scan peptide ELISA, row D, run 2", "experimental": "as §1"}, "asyn_113-127_123A [4]": {"biological_target": "T4, asyn_113-127_123A (human)", "T4 construct": "substitution is already in the entry; also called pep12", "T4 peptide": "Biotin-LEDMPVDPDNAAYEM", "assay": "Ala-scan peptide ELISA, row D, run 2", "experimental": "as §1"}, "asyn_113-127_127A [5]": {"biological_target": "T5, asyn_113-127_127A (human)", "T5 construct": "substitution is already in the entry; also called pep17", "T5 peptide": "Biotin-LEDMPVDPDNEAYEA", "assay": "Ala-scan peptide ELISA, row D, run 2", "experimental": "as §1"}, "asyn_113-127_124G [6]": {"biological_target": "T6, asyn_113-127_124G (human)", "T6 construct": "substitution is already in the entry; also called pep13", "T6 peptide": "Biotin-LEDMPVDPDNEGYEM", "assay": "Ala-scan peptide ELISA, row D, run 2", "experimental": "as §1"}, "asyn_113-127_118A [7]": {"biological_target": "T7, asyn_113-127_118A (human)", "T7 construct": "substitution is already in the entry; also called pep7", "T7 peptide": "Biotin-LEDMPADPDNEAYEM", "assay": "Ala-scan peptide ELISA, row D, run 2", "experimental": "as §1"}, "asyn_113-127_116A [8]": {"biological_target": "T8, asyn_113-127_116A (human)", "T8 construct": "substitution is already in the entry; also called pep5", "T8 peptide": "Biotin-LEDAPVDPDNEAYEM", "assay": "Ala-scan peptide ELISA, row D, run 2", "experimental": "as §1"}, "asyn_113-127_117A [9]": {"biological_target": "T9, asyn_113-127_117A (human)", "T9 construct": "substitution is already in the entry; also called pep6", "T9 peptide": "Biotin-LEDMAVDPDNEAYEM", "assay": "Ala-scan peptide ELISA, row D, run 2", "experimental": "as §1"}, "asyn_113-127_122A [10]": {"biological_target": "T10, asyn_113-127_122A (human)", "T10 construct": "substitution is already in the entry; also called pep11", "T10 peptide": "Biotin-LEDMPVDPDAEAYEM", "assay": "Ala-scan peptide ELISA, row D, run 2", "experimental": "as §1"}, "asyn_113-127_114A [11]": {"biological_target": "T11, asyn_113-127_114A (human)", "T11 construct": "substitution is already in the entry; also called pep3", "T11 peptide": "Biotin-LADMPVDPDNEAYEM", "assay": "Ala-scan peptide ELISA, row D, run 2", "experimental": "as §1"}, "asyn_113-127_115A [12]": {"biological_target": "T12, asyn_113-127_115A (human)", "T12 construct": "substitution is already in the entry; also called pep4", "T12 peptide": "Biotin-LEAMPVDPDNEAYEM", "assay": "Ala-scan peptide ELISA, row D, run 2", "experimental": "as §1"}, "asyn_113-127_124P [13]": {"biological_target": "T13, asyn_113-127_124P (human)", "T13 construct": "substitution is already in the entry; also called pep14", "T13 peptide": "Biotin-LEDMPVDPDNEPYEM", "assay": "Ala-scan peptide ELISA, row D, run 2", "experimental": "as §1"}, "asyn_113-127_120A [14]": {"biological_target": "T14, asyn_113-127_120A (human)", "T14 construct": "substitution is already in the entry; also called pep9", "T14 peptide": "Biotin-LEDMPVDADNEAYEM", "assay": "Ala-scan peptide ELISA, row D, run 2", "experimental": "as §1"}, "asyn_113-127_125A [15]": {"biological_target": "T15, asyn_113-127_125A (human)", "T15 construct": "substitution is already in the entry; also called pep15", "T15 peptide": "Biotin-LEDMPVDPDNEAAEM", "assay": "Ala-scan peptide ELISA, row D, run 2", "experimental": "as §1"}, "asyn_113-127_121A [16]": {"biological_target": "T16, asyn_113-127_121A (human)", "T16 construct": "substitution is already in the entry; also called pep10", "T16 peptide": "Biotin-LEDMPVDPANEAYEM", "assay": "Ala-scan peptide ELISA, row D, run 2", "experimental": "as §1"}, "asyn_113-127_113A [17]": {"biological_target": "T17, asyn_113-127_113A (human)", "T17 construct": "substitution is already in the entry; also called pep2", "T17 peptide": "Biotin-AEDMPVDPDNEAYEM", "assay": "Ala-scan peptide ELISA, row D, run 2", "experimental": "as §1"}, "asyn_113-127_126A [18]": {"biological_target": "T18, asyn_113-127_126A (human)", "T18 construct": "substitution is already in the entry; also called pep16", "T18 peptide": "Biotin-LEDMPVDPDNEAYAM", "assay": "Ala-scan peptide ELISA, row D, run 2", "experimental": "as §1"}, "[19]": {"biological_target": "T1, biotinylated human alpha-synuclein", "assay": "Ala-scan peptide ELISA, row B, run 2", "experimental": "as §1"}, "asyn_113-127_119A [20]": {"biological_target": "T2, asyn_113-127_119A", "assay": "Ala-scan peptide ELISA, row B, run 2", "experimental": "as §1"}, "asyn_113-127 [21]": {"biological_target": "T3, asyn_113-127", "assay": "Ala-scan peptide ELISA, row B, run 2", "experimental": "as §1"}, "asyn_113-127_123A [22]": {"biological_target": "T4, asyn_113-127_123A", "assay": "Ala-scan peptide ELISA, row B, run 2", "experimental": "as §1"}, "asyn_113-127_127A [23]": {"biological_target": "T5, asyn_113-127_127A", "assay": "Ala-scan peptide ELISA, row B, run 2", "experimental": "as §1"}, "asyn_113-127_124G [24]": {"biological_target": "T6, asyn_113-127_124G", "assay": "Ala-scan peptide ELISA, row B, run 2", "experimental": "as §1"}, "asyn_113-127_118A [25]": {"biological_target": "T7, asyn_113-127_118A", "assay": "Ala-scan peptide ELISA, row B, run 2", "experimental": "as §1"}, "asyn_113-127_116A [26]": {"biological_target": "T8, asyn_113-127_116A", "assay": "Ala-scan peptide ELISA, row B, run 2", "experimental": "as §1"}, "asyn_113-127_117A [27]": {"biological_target": "T9, asyn_113-127_117A", "assay": "Ala-scan peptide ELISA, row B, run 2", "experimental": "as §1"}, "asyn_113-127_122A [28]": {"biological_target": "T10, asyn_113-127_122A", "assay": "Ala-scan peptide ELISA, row B, run 2", "experimental": "as §1"}, "asyn_113-127_114A [29]": {"biological_target": "T11, asyn_113-127_114A", "assay": "Ala-scan peptide ELISA, row B, run 2", "experimental": "as §1"}, "asyn_113-127_115A [30]": {"biological_target": "T12, asyn_113-127_115A", "assay": "Ala-scan peptide ELISA, row B, run 2", "experimental": "as §1"}, "asyn_113-127_124P [31]": {"biological_target": "T13, asyn_113-127_124P", "assay": "Ala-scan peptide ELISA, row B, run 2", "experimental": "as §1"}, "asyn_113-127_120A [32]": {"biological_target": "T14, asyn_113-127_120A", "assay": "Ala-scan peptide ELISA, row B, run 2", "experimental": "as §1"}, "asyn_113-127_125A [33]": {"biological_target": "T15, asyn_113-127_125A", "assay": "Ala-scan peptide ELISA, row B, run 2", "experimental": "as §1"}, "asyn_113-127_121A [34]": {"biological_target": "T16, asyn_113-127_121A", "assay": "Ala-scan peptide ELISA, row B, run 2", "experimental": "as §1"}, "asyn_113-127_113A [35]": {"biological_target": "T17, asyn_113-127_113A", "assay": "Ala-scan peptide ELISA, row B, run 2", "experimental": "as §1"}, "asyn_113-127_126A [36]": {"biological_target": "T18, asyn_113-127_126A", "assay": "Ala-scan peptide ELISA, row B, run 2", "experimental": "as §1"}},
  "note": "No end group written: not given here. *: point of attachment. Biotin = O=C1N[C@H]2[C@H](CS[C@H]2CCCCC(=O)*)N1",
  "data": [
    {"binder": "B1", "values": [
      {"measurement": "A450", "setting": "[1]", "result": 0.767, "unit": "OD"},
      {"measurement": "A450", "setting": "asyn_113-127_119A [2]", "result": 0.046, "unit": "OD"},
      {"measurement": "A450", "setting": "asyn_113-127 [3]", "result": 0.331, "unit": "OD"},
      {"measurement": "A450", "setting": "asyn_113-127_123A [4]", "result": 0.321, "unit": "OD"},
      {"measurement": "A450", "setting": "asyn_113-127_127A [5]", "result": 0.414, "unit": "OD"},
      {"measurement": "A450", "setting": "asyn_113-127_124G [6]", "result": 0.287, "unit": "OD"},
      {"measurement": "A450", "setting": "asyn_113-127_118A [7]", "result": 0.357, "unit": "OD"},
      {"measurement": "A450", "setting": "asyn_113-127_116A [8]", "result": 0.366, "unit": "OD"},
      {"measurement": "A450", "setting": "asyn_113-127_117A [9]", "result": 0.405, "unit": "OD"},
      {"measurement": "A450", "setting": "asyn_113-127_122A [10]", "result": 0.051, "unit": "OD"},
      {"measurement": "A450", "setting": "asyn_113-127_114A [11]", "result": 0.348, "unit": "OD"},
      {"measurement": "A450", "setting": "asyn_113-127_115A [12]", "result": 0.266, "unit": "OD"},
      {"measurement": "A450", "setting": "asyn_113-127_124P [13]", "result": 0.05, "unit": "OD"},
      {"measurement": "A450", "setting": "asyn_113-127_120A [14]", "result": 0.18, "unit": "OD"},
      {"measurement": "A450", "setting": "asyn_113-127_125A [15]", "result": 0.05, "unit": "OD"},
      {"measurement": "A450", "setting": "asyn_113-127_121A [16]", "result": 0.335, "unit": "OD"},
      {"measurement": "A450", "setting": "asyn_113-127_113A [17]", "result": 0.339, "unit": "OD"},
      {"measurement": "A450", "setting": "asyn_113-127_126A [18]", "result": 0.342, "unit": "OD"},
      {"measurement": "A450", "setting": "[19]", "result": 0.931, "unit": "OD"},
      {"measurement": "A450", "setting": "asyn_113-127_119A [20]", "result": 0.056, "unit": "OD"},
      {"measurement": "A450", "setting": "asyn_113-127 [21]", "result": 0.394, "unit": "OD"},
      {"measurement": "A450", "setting": "asyn_113-127_123A [22]", "result": 0.378, "unit": "OD"},
      {"measurement": "A450", "setting": "asyn_113-127_127A [23]", "result": 0.429, "unit": "OD"},
      {"measurement": "A450", "setting": "asyn_113-127_124G [24]", "result": 0.326, "unit": "OD"},
      {"measurement": "A450", "setting": "asyn_113-127_118A [25]", "result": 0.382, "unit": "OD"},
      {"measurement": "A450", "setting": "asyn_113-127_116A [26]", "result": 0.433, "unit": "OD"},
      {"measurement": "A450", "setting": "asyn_113-127_117A [27]", "result": 0.459, "unit": "OD"},
      {"measurement": "A450", "setting": "asyn_113-127_122A [28]", "result": 0.06, "unit": "OD"},
      {"measurement": "A450", "setting": "asyn_113-127_114A [29]", "result": 0.387, "unit": "OD"},
      {"measurement": "A450", "setting": "asyn_113-127_115A [30]", "result": 0.387, "unit": "OD"},
      {"measurement": "A450", "setting": "asyn_113-127_124P [31]", "result": 0.058, "unit": "OD"},
      {"measurement": "A450", "setting": "asyn_113-127_120A [32]", "result": 0.24, "unit": "OD"},
      {"measurement": "A450", "setting": "asyn_113-127_125A [33]", "result": 0.057, "unit": "OD"},
      {"measurement": "A450", "setting": "asyn_113-127_121A [34]", "result": 0.317, "unit": "OD"},
      {"measurement": "A450", "setting": "asyn_113-127_113A [35]", "result": 0.407, "unit": "OD"},
      {"measurement": "A450", "setting": "asyn_113-127_126A [36]", "result": 0.392, "unit": "OD"}
    ]}
  ]
}
